Assays:
[1] = anti-Hag western densitometry of cell lysates; details: glycan lost; control: native V3, Dox, no Tun
[2] = anti-Hag immunocytochemistry, extracellular V3 staining; details: glycan lost; control: native V3, Dox, no Tun
[3] = conditioned-media western and immunocytochemistry; details: glycan lost; control: same mutant without Tun

| Substance | expression_or_secretion, fold_change [1] | localisation_or_trafficking [2] | expression_or_secretion [3] |
| --- | --- | --- | --- |
| versican isoform V3 (rat V3): tunicamycin | decreases | no change |  |
| versican isoform V3 (rat V3): N57Q + tunicamycin |  |  | abolishes |
| versican isoform V3 (rat V3): N330Q + tunicamycin |  |  | abolishes |
